Assays:
[1] = biological target: SARS-CoV-2 spike receptor binding domain (native RBD) (SARS-CoV-2) (UniProt P0DTC2)
[2] = biological target: SARS-CoV-2 receptor binding domain, native (501N) (SARS-CoV-2) (UniProt P0DTC2); test: BLI, RBD immobilised on AR2G biosensor, 1:1 fit

Substance: AZD1061 (antibody)
- Kd [1]: 1.04 nM

Substance: REGN10933 (antibody)
- Kd [1]: 1.82 nM

Substance: REGN10987 as tested by BLI (Fab by the footnote of Table 12)
- Kd [2]: 3.85 nM

Substance: REGN10987 (antibody)
- Kd [1]: 3.85 nM

Substance: AZD1061 as tested by BLI (Fab by the footnote of Table 12)
- Kd [2]: 1.04 nM

Substance: AZD8895 as tested by BLI (Fab by the footnote of Table 12)
- Kd [2]: 1.49 nM

Substance: AZD8895 (antibody)
- Kd [1]: 1.49 nM

Substance: REGN10933 as tested by BLI (Fab by the footnote of Table 12)
- Kd [2]: 1.82 nM

Reference: patent publication US20240043507A1
